Data published in the supplement of paper PMC7877785.
± gives the uncertainty stated by the source.

Assay: self-splicing fitness, log relative to wild type (ln ratio); higher = more splicing; Tetrahymena group I intron in knt gene, E. coli kanamycin selection, DiMSum; sequences stand for … in CUCUCU…GGAGGGAAAAGUUAUCAGGCAUGCACCUGGUAGCUAGUCUUUAAACCAAUAGAUUGCAUCGGUUUAAAAGGCAAGACCGUCAAAUUGCGGGAAAGGGGUCAACAGCCGUUCAGUACCAAGUCUCAGGGGAAACUUUGAGAUGGCCUUGCAAAGGGUAUGGUAAUAAGCUGACGGACAUGGUCCUAACCACGCAGCCAAGUCCUAAGUCAACAGAUCUUCUGUUGAUAUGGAUGCAGUUCACAGACUAAAUGUCGGUCGGGGAAGAUGUAUUCUUCUCAUAAGAUAUAGUCGGACCUCUCCUUAAUGGGAGCUAGCGGAUGAAGUGAUGCAACACUGGAGCCGCUGGGAACUAAUUUGUAUGCGAAAGUAUAUUGAUUAGUUUUGGAGUACUCGUGGUCG
How it was run: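 Six replicate transformations of E. coli BL21(DE3) with a pET-22b(+) library were grown overnight at 37°C or 30°C. The library randomised all eight P1ex-region intron nucleotides, the intron lying in the knt kanamycin-resistance gene, and plates were LB agar with or without 25 μg/mL kanamycin plus 100 μg/mL carbenicillin, 50 μM IPTG and 0.2% rhamnose. Pooled colonies were amplicon-sequenced on an Illumina HiSeq 2500, and fitness is the DiMSum error-weighted combination of wild-type-normalised replicate fold changes, kanamycin versus none.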

| Sequence | self-splicing fitness (ln) (30 °C) | self-splicing fitness (ln) (37 °C) |
| --- | --- | --- |
| GUAUAGCAAUAUUACGAAAG | -3.15 ± 0.43 | -2.06 ± 0.35 |
| GUAUAGCAAUAUUACGAACA | -2.44 ± 0.27 | -1.21 ± 0.27 |
| GUAUAGCAAUAUUACGAACG | -1.91 ± 0.32 | – |
| GUAUAGCAAUAUUACGAAGG | -3.44 ± 0.36 | -1.61 ± 0.29 |
| GUAUAGCAAUAUUACGAGAA | – | -2.32 ± 0.49 |
| GUAUAGCAAUAUUACGAGGG | -3.15 ± 0.26 | -0.987 ± 0.23 |
| GUAUAGCAAUAUUACGAUAA | -0.869 ± 0.12 | -0.771 ± 0.16 |
| GUAUAGCAAUAUUACGCACG | -1.99 ± 0.19 | -0.994 ± 0.3 |
| GUAUAGCAAUAUUACGCAGG | -3.15 ± 0.45 | -3.36 ± 0.47 |
| GUAUAGCAAUAUUACGCAUG | -3.35 ± 0.24 | -1.01 ± 0.17 |
| GUAUAGCAAUAUUACGCCUA | -1.64 ± 0.27 | -0.116 ± 0.22 |
| GUAUAGCAAUAUUACGCCUG | -2.67 ± 0.11 | -0.647 ± 0.1 |
| GUAUAGCAAUAUUACGCCUU | -2.11 ± 0.29 | -0.499 ± 0.24 |
| GUAUAGCAAUAUUACGCGAG | -1.31 ± 0.11 | -1.47 ± 0.12 |
| GUAUAGCAAUAUUACGCGCA | -1.2 ± 0.17 | -0.955 ± 0.14 |
| GUAUAGCAAUAUUACGCGGA | -3.08 ± 0.33 | -0.662 ± 0.2 |
| GUAUAGCAAUAUUACGCGUC | -2.87 ± 0.27 | -0.113 ± 0.24 |
| GUAUAGCAAUAUUACGGGGG | -3.63 ± 0.37 | -2.53 ± 0.48 |
| GUAUAGCAAUAUUACGGUAG | -1.43 ± 0.095 | -1.23 ± 0.15 |
| GUAUAGCAAUAUUACGGUGC | -2.45 ± 0.23 | -1.76 ± 0.36 |
| GUAUAGCAAUAUUACGUACA | -2.07 ± 0.28 | -0.449 ± 0.23 |
| GUAUAGCAAUAUUACGUACU | -3.8 ± 0.39 | -2.05 ± 0.2 |
| GUAUAGCAAUAUUACGUAUC | -2.07 ± 0.18 | -0.978 ± 0.2 |
| GUAUAGCAAUAUUACGUCCG | -2.98 ± 0.18 | -1.21 ± 0.17 |
| GUAUAGCAAUAUUACGUGCC | -3.23 ± 0.34 | -2.54 ± 0.31 |

| Sequence | self-splicing fitness (ln) (30 °C) | self-splicing fitness (ln) (37 °C) |
| --- | --- | --- |
| GUAUAGCAAUAUUACGUGGU | -3.14 ± 0.23 | -1.29 ± 0.15 |
| GUAUAGCAAUAUUACGUGUU | -3.38 ± 0.18 | -1.63 ± 0.18 |
| GUCAAGCAAUAUUACGAAAG | -3.72 ± 0.4 | -1.39 ± 0.49 |
| GUCAAGCAAUAUUACGAAUA | -1.85 ± 0.16 | -1.42 ± 0.14 |
| GUCAAGCAAUAUUACGACGC | -1.35 ± 0.11 | 0.832 ± 0.18 |
| GUCAAGCAAUAUUACGACGU | -1.26 ± 0.056 | 0.099 ± 0.07 |
| GUCAAGCAAUAUUACGAGCA | -1 ± 0.35 | -2.29 ± 0.28 |
| GUCAAGCAAUAUUACGAGGC | -3.94 ± 0.24 | -2.83 ± 0.18 |
| GUCAAGCAAUAUUACGCAUC | -3.22 ± 0.13 | -1.74 ± 0.18 |
| GUCAAGCAAUAUUACGCCAA | – | -1.52 ± 0.28 |
| GUCAAGCAAUAUUACGCCUG | -3.6 ± 0.25 | -2.6 ± 0.22 |
| GUCAAGCAAUAUUACGCGUG | -2.92 ± 0.16 | -1.78 ± 0.16 |
| GUCAAGCAAUAUUACGCGUU | -2.07 ± 0.076 | -0.761 ± 0.097 |
| GUCAAGCAAUAUUACGCUUU | -2.41 ± 0.21 | -1.73 ± 0.16 |
| GUCAAGCAAUAUUACGGAAC | -3.13 ± 0.24 | -3.19 ± 0.21 |
| GUCAAGCAAUAUUACGGCUC | -0.927 ± 0.057 | 0.181 ± 0.084 |
| GUCAAGCAAUAUUACGGGUG | -4.19 ± 0.24 | -2.73 ± 0.17 |
| GUCAAGCAAUAUUACGGUCU | -2.7 ± 0.084 | -0.906 ± 0.075 |
| GUCAAGCAAUAUUACGGUGU | -2.05 ± 0.071 | -0.734 ± 0.083 |
| GUCAAGCAAUAUUACGGUUC | -0.665 ± 0.068 | -0.255 ± 0.1 |
| GUCAAGCAAUAUUACGUACG | -2.46 ± 0.14 | -1.9 ± 0.17 |
| GUCAAGCAAUAUUACGUAUG | -4.08 ± 0.13 | -2.6 ± 0.11 |
| GUCAAGCAAUAUUACGUCAG | -3.55 ± 0.23 | -3.26 ± 0.37 |
| GUCAAGCAAUAUUACGUCCU | -2.13 ± 0.11 | -1.04 ± 0.11 |
| GUCAAGCAAUAUUACGUGCG | -2.29 ± 0.1 | -0.638 ± 0.1 |

| Sequence | self-splicing fitness (ln) (30 °C) | self-splicing fitness (ln) (37 °C) |
| --- | --- | --- |
| GUCAAGCAAUAUUACGUUAG | -4.36 ± 0.24 | -3.3 ± 0.23 |
| GUCCAGCAAUAUUACGAAUC | 0.437 ± 0.16 | 0.114 ± 0.2 |
| GUCCAGCAAUAUUACGACCA | -0.7 ± 0.21 | -0.517 ± 0.17 |
| GUCCAGCAAUAUUACGAGAG | -1.15 ± 0.078 | 0.117 ± 0.077 |
| GUCCAGCAAUAUUACGAGGC | -2.32 ± 0.22 | -2.35 ± 0.37 |
| GUCCAGCAAUAUUACGAUAC | -0.876 ± 0.082 | -0.0588 ± 0.099 |
| GUCCAGCAAUAUUACGAUUA | -0.767 ± 0.074 | -0.551 ± 0.077 |
| GUCCAGCAAUAUUACGCAAC | -0.987 ± 0.099 | -0.844 ± 0.11 |
| GUCCAGCAAUAUUACGCCCC | -1.09 ± 0.18 | -0.607 ± 0.18 |
| GUCCAGCAAUAUUACGCGAU | -3.24 ± 0.19 | -2.4 ± 0.19 |
| GUCCAGCAAUAUUACGCUCU | -0.327 ± 0.1 | 0.137 ± 0.12 |
| GUCCAGCAAUAUUACGCUGG | -4.01 ± 0.12 | -3.25 ± 0.11 |
| GUCCAGCAAUAUUACGGAAA | -0.248 ± 0.095 | 0.62 ± 0.12 |
| GUCCAGCAAUAUUACGGAUU | -2.84 ± 0.09 | -0.789 ± 0.091 |
| GUCCAGCAAUAUUACGGCAU | -0.147 ± 0.085 | -0.171 ± 0.093 |
| GUCCAGCAAUAUUACGGGAG | -1.15 ± 0.063 | -0.322 ± 0.082 |
| GUCCAGCAAUAUUACGGUUA | -0.0348 ± 0.05 | 0.165 ± 0.055 |
| GUCCAGCAAUAUUACGGUUC | -0.386 ± 0.049 | 0.219 ± 0.065 |
| GUCCAGCAAUAUUACGUCAG | -4.93 ± 0.28 | -2.16 ± 0.14 |
| GUCCAGCAAUAUUACGUGAU | -0.729 ± 0.047 | -0.345 ± 0.071 |
| GUCCAGCAAUAUUACGUUCU | -2.35 ± 0.09 | -0.777 ± 0.08 |
| GUCCAGCAAUAUUACGUUUC | -0.538 ± 0.056 | -0.05 ± 0.074 |
| GUCGAGCAAUAUUACGAAAG | -2.57 ± 0.29 | -2.2 ± 0.35 |
| GUCGAGCAAUAUUACGAGCG | -2.88 ± 0.19 | -1.03 ± 0.23 |
| GUCGAGCAAUAUUACGAGUC | -3.73 ± 0.25 | -2.2 ± 0.18 |

| Sequence | self-splicing fitness (ln) (30 °C) | self-splicing fitness (ln) (37 °C) |
| --- | --- | --- |
| GUCGAGCAAUAUUACGAGUG | -1.62 ± 0.088 | -1.85 ± 0.11 |
| GUCGAGCAAUAUUACGAGUU | -2.66 ± 0.18 | -2.52 ± 0.28 |
| GUCGAGCAAUAUUACGAUAU | -1.44 ± 0.13 | -0.298 ± 0.17 |
| GUCGAGCAAUAUUACGCCCA | – | -0.376 ± 0.33 |
| GUCGAGCAAUAUUACGCGAC | -2.57 ± 0.2 | -2.12 ± 0.29 |
| GUCGAGCAAUAUUACGGAGA | -2.84 ± 0.23 | -2.47 ± 0.31 |
| GUCGAGCAAUAUUACGGAUC | -1.36 ± 0.087 | -0.586 ± 0.097 |
| GUCGAGCAAUAUUACGGCAU | -1.04 ± 0.067 | 0.111 ± 0.083 |
| GUCGAGCAAUAUUACGGGAC | -3.05 ± 0.22 | -2.05 ± 0.21 |
| GUCGAGCAAUAUUACGGGGG | -2.05 ± 0.29 | – |
| GUCGAGCAAUAUUACGGGUA | -2.65 ± 0.27 | -2.91 ± 0.22 |
| GUCGAGCAAUAUUACGGUGG | -3.54 ± 0.27 | -2.24 ± 0.22 |
| GUCGAGCAAUAUUACGUCGU | -0.515 ± 0.12 | -0.592 ± 0.17 |
| GUCGAGCAAUAUUACGUGAU | -2.2 ± 0.15 | -2.11 ± 0.18 |
| GUCGAGCAAUAUUACGUUAA | – | -2.06 ± 0.47 |
| GUCGAGCAAUAUUACGUUCA | -0.837 ± 0.084 | -0.462 ± 0.086 |
| GUCGAGCAAUAUUACGUUUG | -2.54 ± 0.28 | -2.11 ± 0.24 |
| GUCUAGCAAUAUUACGAAAA | -2.3 ± 0.26 | -1.26 ± 0.22 |
| GUCUAGCAAUAUUACGAAAG | – | -2.42 ± 0.39 |
| GUCUAGCAAUAUUACGAGAA | -1.8 ± 0.39 | -0.829 ± 0.27 |
| GUCUAGCAAUAUUACGAGAG | -2.4 ± 0.17 | -1.33 ± 0.12 |
| GUCUAGCAAUAUUACGAGCA | -1.29 ± 0.24 | -0.906 ± 0.24 |
